Here are results for 1 molecule from publication PMC4689322.

The series addresses T1, MBNL1 ZnF3/4 (Homo sapiens, UniProt Q9NR56-2 178-246).
T1 sequence: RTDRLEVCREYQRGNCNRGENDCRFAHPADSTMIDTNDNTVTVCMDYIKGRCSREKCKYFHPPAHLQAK
Kind of series: intrinsic tyrosine fluorescence quenching.

B1: hcTNT 18-nt (S10) (ssRNA)
RNA: UCGCUUUUCCCCUCCGCU
As a reminder, the Kd is the constant that tells how readily two partners part at equilibrium. Read a low Kd as a tighter complex. In turn, B1 had a Kd of 40 ± 10 nM.
